According to PMC10373194, “Determination of the Dissociation Constant for Polyvalent Receptors Using ELISA: A Case of M13 Phages Displaying Troponin T-Specific Peptides” (ACS Omega, 2023):
“And” between values parts separate entries of the source, which are not always exact repeats. Equal entries are not always repeated. Where two headings read alike, the source gives them in different places.

How the values were obtained:
troponin T (TnT) [1] = biological target: T1, troponin T (TnT) (Homo sapiens, UniProt P45379); experiment: Bio-panning of Ph.D.-12 phage display library on TnT-coated plates; format: binding; conditions: after 3 rounds of bio-panning; number of proper sequences
Description: In each bio-panning round, the input and output phases were titrated immediately before or after the experiment. The presented mean p(O/I) value for each bio-panning round may be interpreted as the efficiency of phage binding. In chemical nomenclature, p(x) is defined as −log(x), so a higher p(O/I) means a lower ratio of phage output–input. The p(O/I) value for the first panning round is relatively low. However, usage of more concentrated Tween-20 (from 0.1 to 0.5%) causes a significant increase in p(O/I) values for the second round (around 4) despite a higher phage input. In addition, there is a difference between the second and the third p(O/I), which may be interpreted as an enrichment of TnT-binders in the phage pool, and it is the main aim of bio-panning via phage display. The increase in phage recovery yield is a widely reported observation by manufacturers and other authors.[14],[17],[35],[36]
Plate panning was performed regarding the general concept presented by Barbas et al.[60] with some modifications. Polystyrene plates were precoated with TnT and incubated overnight (18–24 h) in 100 μL of 20 μg/mL TnT solution in PBS at 4 °C. Then, the wells were emptied and filled with 100 μL of 0.1% BSA solution (in PBS) and incubated for 2 h in the fridge. Later, they were washed four times with PBST 0.1% (in the first panning round) and 0.5% in the next two. […]

troponin T (TnT) [2] = biological target: T1, troponin T (TnT); format: binding
troponin T (TnT) [3] = biological target: T1, troponin T (TnT); experiment: ELISA screening of isolated phage clones against TnT (BSA as negative control)
Method: It is worth mentioning that both TnT- and BSA-precoated wells were blocked with the same 0.1% BSA solution, so BSA was present in each well in significant excess.
ELISAs were performed in 96-well polystyrene plates (Thermo Scientific, USA). Wells were precoated with the desired protein by 16–20 h incubation of the protein suspension in PBS at 4 °C. In all assays, 1:5000 dilution of HRP-antiM13pVIII monoclonal antibody conjugate was used. Signals were recorded using Synergy HTX Multi-Mode Reader by BioTek.
In the initial screening, plates were precoated with troponin T or BSA (negative control) by incubating 100 μL of 1 μg/mL appropriate protein solution. Then plates were blocked with 0.1% BSA for 2 h at 4 °C and washed 4 times with 0.1% PBST. Every isolated phage clone solution (phages concentration 10^10 pfu/mL, 100 μL) was incubated with TnT and BSA for 1 h at 350 rpm at room temperature. Then wells were washed 4 times using 0.1% PBST, 100 μL of HRP-antibody conjugate was added, and plates were incubated as previously. After 1 h, plates were washed as before, and 50 μL of TMB was added. After 5 min, the reaction was stopped by adding 50 μL of 2 M sulfuric acid. Absorbance at 450 nm was read using a Synergy HTX Multi-Mode Reader (BioTek) plate reader.

troponin T (TnT) [4] = biological target: T1, troponin T (TnT); experiment: Determination of Kd via k-ELISA (Friguet procedure, preincubation of phage with soluble TnT); format: binding
Method: During an ELISA experiment, as proposed by Friguet,[21] a constant concentration of phages is incubated with different concentrations of TnT. Saturation of phages (in solution) by soluble TnT limits the ability of phages to bind to immobilized TnT, and therefore, increasing concentration of TnT causes a decrease in signal from the phages, in our case, the M13. Theoretically, two options have to be discussed: (1) a signal (a) is generated for each phage with at least one unoccupied active site (eq 11) and (2) a signal (a) is generated proportionally to the total concentration of unoccupied active sites (eq 12). [drawing 21] 11 [drawing 22] 12
ELISA (also k-ELISA) can be used to measure the dissociation constant (Kd), which is commonly applied to describe affinity.[21] According to the mathematical model presented above, the Kd value can be calculated via pre-incubation of a receptor with varied concentrations of ligand and subsequent detection of the soluble receptor (phage) via ELISA. This approach was adapted and applied to evaluate the affinity of several phage-derived ligands[16]−[18] but without a theoretical analysis and fulfilling fundamental Friguet’s assumptions.[21] In these papers, phages were treated as monovalent receptors while they are tri to pentavalent (due to a varied number of pIII protein per phage particle). Moreover, the authors applied a wide range of ligand concentrations, high excess compared to the receptor and treated the concentration-signal function as logarithmic, while the discussion above concluded that it is not possible to apply Frigeut’s method for almost completely saturated receptors (due to ligand excess).
In our work, analysis was performed for clones: A3, B7, D11, and wild-type M13. […] The phages’ total concentration was about 1 × 10^10 pfu/mL (16 pM) and was carefully determined using the biological method immediately before analysis. The range of ratios of total TnT and total phage concentration was 1:2, 1:1, 2:1, and 4:1. […] As a result, a decrease in the ability to bind to immobilized TnT molecules occurs. Experimental data were analyzed according to the presented mathematical model.
The dissociation constant was calculated using k-ELISA, according to the procedure first described by Friguet.[21] Phages (∼10^10 pfu/mL corresponding to about 16 pM) were preincubated with different concentrations of TnT from 0 to 4 ng/mL (which corresponds to 108 pM). Next, mixtures were transferred into wells precoated with 0.25 μg/mL TnT (or BSA). Further steps were performed in the same manner as for phage concentration measuring experiments.

[5] = assumed stoichiometry 1:1, k-ELISA, phages ~10^10 pfu/mL (about 16 pM) preincubated with TnT 0 to 4 ng/mL, wells precoated 0.25 μg/mL TnT, 0.01% myoglobin blocking, absorbance 370 nm every 70 s for 10 min, linear slope regression, triplicate, phage-displayed peptide
[6] = assumed stoichiometry 1:2, k-ELISA, phages ~10^10 pfu/mL (about 16 pM) preincubated with TnT 0 to 4 ng/mL, wells precoated 0.25 μg/mL TnT, 0.01% myoglobin blocking, absorbance 370 nm every 70 s for 10 min, linear slope regression, triplicate, phage-displayed peptide

| Substance | frequency among sequenced clones (troponin T (TnT) [1]) | nature of interaction with target (troponin T (TnT) [2]) | ELISA signal TnT versus BSA / affinity in screening (in words) (troponin T (TnT) [3]) | Kd (troponin T (TnT) [4]) | Kd (troponin T (TnT) [4]; [5]) [nM] | Kd (troponin T (TnT) [4]; [6]) [nM] | Kd (troponin T (TnT) [4]; assumed stoichiometry 1:5, k-ELISA, phages ~10^10 pfu/mL (about 16 pM) preincubated with TnT 0 to 4 ng/mL, wells precoated 0.25 μg/mL TnT, 0.01% myoglobin blocking, absorbance 370 nm every 70 s for 10 min, linear slope regression, triplicate, phage-displayed peptide) [nM] |
| --- | --- | --- | --- | --- | --- | --- | --- |
| DHAQRYGAGHSG [A3] | 4 out of 16 and 4/16 | specific interaction with the studied target | highest affinity in screening | 0.115 nM and 0.187 nM and 0.172 nM | – | – | – |
| B7: TnT-binding M13 phage clone displaying 12-amino-acid peptide (HRSMPTPLWYTA in Table 2) on pIII | – | – | – | – | 0.077 ± 0.013 | 0.166 ± 0.03 | 0.143 ± 0.053 |
| D11: TnT-binding M13 phage clone displaying 12-amino-acid peptide (ALKIGPETTIYM in Table 2) on pIII | – | – | – | – | 0.167 ± 0.007 | 0.216 ± 0.04 | – |
